Experimental data reported in patent EP0672136B1, “POLYPEPTIDES, DERIVED FROM ENDONEXIN 2, HAVING HEPATITIS B VIRUS RECEPTOR ACTIVITY AND THEIR USE IN DIAGNOSTIC AND PHARMACEUTICAL COMPOSITIONS” (priority 1992, dated 1994).

Molecular target: T1, major HBsAg (Hepatitis B virus genotype A2 subtype adw2, UniProt P03141)
T1 construct: purchased Merck Sharp and Dohme Laboratories (gift of Dr. W. J. Miller, not bought); host or cells: yeast
Assay: Binding of radiolabeled endonexin II to immobilized major HBsAg in the presence of endonexin II peptide fractions (F-peak inhibition assay)
Design: species or system HBV
Settings: fractions of acid-hydrolysed human liver endonexin-II; triplicate; Figure 23A
Experimental: Purified endonexin-II was treated according to the method as described in example 3. (Hydrolysis in 3% formic acid at 112°C for 4h). After treatment with formic acid, the protein digest was separated by reversed phase HPLC on a Vydac C-4 column (2.1 x 250 mm, Hesperia, CA, USA) as described in example 3. Peptide peaks were registered on a chart recorder and collected manually.
Binding experiments were performed according to the method as described in example 1 and 5. However, binding of radiolabeled endonexin-II to immobilized major HBsAg was carried out in the presence of individual peak fractions of unlabeled digested human liver endonexin-II (see above). The experiment was performed in triplicate. […] Therefore, these peptide was considered as one of the important major HBsAg-binding epitopes on endonexin-II. By sequencing an identical peak fraction in a parallel experiment, peptides corresponding to peaks F and S were determined as amino acids 266 to 280 (peak F, DHTLIRVMVSRSEID) and amino acids 92-138 (peak S): […]) of human endonexin II (numbering according to Kaplan et al., 1988).

T1 sequence (P03141 175-400): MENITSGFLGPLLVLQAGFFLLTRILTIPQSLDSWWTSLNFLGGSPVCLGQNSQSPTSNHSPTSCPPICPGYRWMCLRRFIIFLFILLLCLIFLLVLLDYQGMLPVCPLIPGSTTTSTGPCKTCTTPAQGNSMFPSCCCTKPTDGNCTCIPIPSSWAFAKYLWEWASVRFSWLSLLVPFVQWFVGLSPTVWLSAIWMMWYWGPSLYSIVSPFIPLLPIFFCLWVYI

**Q.** With “DEEKFITIFGTRSVSHLRKVFDKYMTISGFQIEETI [peak L, region encompassing amino acids 190 to 225 of human endonexin]” as the sequence, how does the “inhibition of binding of radiolabeled endonexin-II to major HBsAg by HPLC peak fraction” value read?
**A.** The value was “slightly lower binding inhibition capacity”.
